Experimental findings from patent US20130202615A1 (VACCINEX, published 2013) are described below.

Test [1] has as its target T1, VEGF (UniProt P15692-4 27-191, limits assumed).
T1 construct: also called VEGF-A; vascular endothelial growth factor
Put plainly: VEGFR1 blocking ELISA: antibody pre-incubated with VEGF, added to a VEGFR1-coated plate. (ELISA stands for enzyme-linked immunosorbent assay.)

Test [2] has as its target T1, VEGF. Put plainly: Biacore SPR, VEGF immobilized on the chip, antibody as analyte, bivalent model fit. The text has this:
(§1) Data was fit with a bivalent model for affinity determination.
A general note: In SPR one partner is held on a chip, and binding of the other changes the refractive index at the surface.

Test [3] addresses T1, VEGF. Put plainly: competition ELISA: titrated antibody and biotinylated bevacizumab added to a VEGF-coated plate, bound biotinylated bevacizumab detected with Strep-HRP; competitor: biotinylated bevacizumab.
The target in test [4] is T1, VEGF. Put plainly: summary table of MAb7392 characterization; affinity by Biacore, rounded form of the value in Table 2; summary Table 6, rounded value.
Description: as §1

In test [5] the target is T1, VEGF. Put plainly: Biacore SPR, both antibodies tested under the same conditions.
Description: as §1

Test [6] concerns the target T1, VEGF. Put plainly: VEGFR2 blocking ELISA: antibody pre-incubated with VEGF, added to a VEGFR2-coated plate.

T1 sequence (P15692 other isoform, or with tags, fused parts or gaps limits assumed): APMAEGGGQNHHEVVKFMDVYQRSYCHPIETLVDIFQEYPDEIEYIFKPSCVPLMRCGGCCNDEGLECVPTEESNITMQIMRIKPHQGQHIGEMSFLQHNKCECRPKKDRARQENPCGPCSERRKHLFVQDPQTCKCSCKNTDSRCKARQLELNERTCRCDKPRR

B1: MAb7392 (antibody, V domains shown)
VH: QVQLVQSGAELRKPGASVKISCKASGYSLTYYGMNWVRQAPGQGLEWMGWINTFTGDSTYAQDFTGRFVFSLDTSVSTAYLQISSLKAEDMAMYYCAKYPHYYGSSHWYFDVWGQGTTVTVSS
VL: EIVLTQSPATLSVSPGERATLSCRASQSVNSNLAWYQQKPGQAPRVLIYGASTRATGIPARFSGSGSGTEFTLTISSLQSEDFAVYYCQQYSDIPWTFGQGTKLEIK
notes: also called H7230 + L7104
With B1, the half-maximal inhibitory concentration (IC50) (in general, the point on the concentration scale where inhibition reaches its midpoint) with VEGF [1] was 0.08 nM; in the test with VEGF [6], 0.18 nM. For the same molecule, the results for the Kd with VEGF [2] and in the test with VEGF [4] were 0.91 nM and 0.9 nM, respectively. The “IC50 (read off the curve)” value in the test with VEGF [3] was roughly 0.6 nM. The “fold better affinity than bevacizumab” value with VEGF [5] was roughly 4 fold.
